The values below come from US6987008B1, “Variant nucleoside-5′-phosphate producing enzyme” (priority 1999, dated 2006).

The subject of series [1] is OC[C@H]1O[C@@H](n2cnc3c(O)ncnc32)[C@H](O)[C@@H]1O. The series is described as follows: Km for inosine and guanosine, transphosphorylation by EA-AP mutant of pENP340. The note with it: other: transphosphorylation, 100 μmol/ml sodium pyrophosphate, pH 4.0, 30° C., 10 min, cell free extract, Hanes-Woolf. The series is classed as biochemical, Enterobacter aerogenes IFO12010. From the text: (§1) The mutations were introduced into the plasmid DNA by using Quick Change site-directed mutagenesis kit produced by Stratagene. Twenty kinds of oligonucleotides (Table 12) for introduction of mutation from MUT180 (SEQ ID NO: 101) to […] (SEQ ID NO: 120) were synthesized by using a DNA synthesizer (Model 394 produced by Applied Biosystem). The mutations were introduced according to the protocol of Stratagene by using pENP170 as the first template and MUT180 and MUT181 as oligonucleotides for introduction of mutation.
(§2) By using a plasmid introduced with a mutation as a new template, the same procedure was repeated to cumulatively introduce site-specific mutations. Plasmids were prepared from the transformants by the alkali lysis method, and their nucleotide sequences were determined to confirm that the target nucleotides were replaced. […]
(§3) Escherichia coli JM109/pENP180, Escherichia coli JM109/pENP320, Escherichia coli JM109/pENP340, Escherichia coli JM109/pENP410, Escherichia coli JM109/pENP510 and Escherichia coli JM109/pENP520, which were introduced with a plasmid containing each mutant acid phosphatase gene, were each inoculated to 50 ml of L medium containing 100 µg/ml of ampicillin and 1 mM of IPTG, and cultured at 37° C. for 16 hours. […] Km values for inosine and guanosine in the transphosphorylation reaction were measured by using each cell free extract. […]

Series [2] deals with Nc1nc2c(ncn2[C@@H]2O[C@H](CO)[C@@H](O)[C@H]2O)c(=O)[nH]1. Described as above. The series is classed as biochemical, Enterobacter aerogenes IFO12010. The note with it: other: transphosphorylation, 100 μmol/ml sodium pyrophosphate, pH 4.0, 30° C., 10 min, cell free extract, Hanes-Woolf.
Excerpt: as §1, §2, §3

For series [3], the target named is T1, Escherichia blattae acid phosphatase (EB-AP), wild type, SEQ ID NO: 2 / 124 (Shimwellia blattae, UniProt Q9S1A6).
T1 sequence (Q9S1A6 21-249): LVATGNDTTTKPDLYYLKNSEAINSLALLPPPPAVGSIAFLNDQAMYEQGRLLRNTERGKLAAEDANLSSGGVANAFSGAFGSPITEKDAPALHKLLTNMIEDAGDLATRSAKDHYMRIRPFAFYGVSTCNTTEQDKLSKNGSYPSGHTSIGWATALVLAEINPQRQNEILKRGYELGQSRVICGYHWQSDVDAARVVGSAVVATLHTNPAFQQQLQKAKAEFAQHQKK
The series is described as follows: Km of inosine for wild-type EB-AP. The series is classed as biochemical.

Some results are limits rather than exact numbers.

Usually Km stands for the substrate concentration at which the rate is half of its maximum. “Enterobacter aerogenes IFO12010 acid phosphatase (EA-AP) mutant encoded by pENP340, L61Q/A63Q/E64A/N67D/S69A/A70V/G72D/E102Q/T133K/E134D/T149S/I151S as printed in Table 13 (parent SEQ ID NO: 10) (Klebsiella aerogenes KCTC 2190; A83Q/A90V/E122Q/E154D/E84A/G92D/I171S/L81Q/N87D/S89A/T153K/T169S)”: the Km is 19 mM in series [1] and 5.1 mM in series [2].

For `OC[C@H]1O[C@@H](n2cnc3c(O)ncnc32)[C@H](O)[C@@H]1O` [inosine], in series [3], the Km was greater than 100 mM.
